Experimental data reported in publication PMC6079076, “Structure of the mouse TRPC4 ion channel” (Nature Communications, 2018).

Target: the molecule itself
Experiment: cryo-EM structure; single-particle cryo-EM of purified TRPC4 in digitonin, 30 mM HEPES, 150 mM NaCl, 1 mM DTT, pH 7.5; apo state; C4 symmetry imposed; 3.3 Å

B1: mouse TRPC4 (residues a.a. 1–758, excluding a.a. 759–974) (domain or fragment, UniProt Q9QUQ5 1-758, looked up)
chain: MAQFYYKRNVNAPYRDRIPLRIVRAESELSPSEKAYLNAVEKGDYASVKKSLEEAEIYFKININCIDPLGRTALLIAIENENLELIELLLSFNVYVGDALLHAIRKEVVGAVELLLNHKKPSGEKQVPPILLDKQFSEFTPDITPIILAAHTNNYEIIKLLVQKGVSVPRPHEVRCNCVECVSSSDVDSLRHSRSRLNIYKALASPSLIALSSEDPFLTAFQLSWELQELSKVENEFKSEYEELSRQCKQFAKDLLDQTRSSRELEIILNYRDDNSLIEEQSGNDLARLKLAIKYRQKEFVAQPNCQQLLASRWYDEFPGWRRRHWAVKMVTCFIIGLLFPVFSVCYLIAPKSPLGLFIRKPFIKFICHTASYLTFLFLLLLASQHIDRSDLNRQGPPPTIVEWMILPWVLGFIWGEIKQMWDGGLQDYIHDWWNLMDFVMNSLYLATISLKIVAFVKYSALNPRESWDMWHPTLVAEALFAIANIFSSLRLISLFTANSHLGPLQISLGRMLLDILKFLFIYCLVLLAFANGLNQLYFYYEETKGLSCKGIRCEKQNNAFSTLFETLQSLFWSIFGLINLYVTNVKAQHEFTEFVGATMFGTYNVISLVVLLNMLIAMMNNSYQLIADHADIEWKFARTKLWMSYFEEGGTLPTPFNVIPSPKSLWYLVKWIWTHLCKKKMRRKPESFGTIGRRAADNLRRHHQYQEVMRNLVKRYVAAMIREAKTEEGLTEENVKELKQDISSFRFEVLGLLRGSK
notes: mouse TRPC4, a.a; 1-758 of 974 (a.a. 759-974 left out); MBP tag removed with PreScission protease; also called mTRPC4; truncated TRPC4; source: HEK293S GnTI- cells, BacMam baculovirus, purified (amylose resin, Superose 6); not shown: MBP, N-terminal, cleaved
stoichiometry N: 4
